Results taken from patent publication US6475744 (GENERAL HOSPITAL CORPORATION A MASSACHUSETTS, dated 2002).

B1: mTIM-V5 (other, not shown: small tags and cut ends)
chain: MDLYMMNCELLATCSALGYLEGGTYHKEPDCLESVKDLIRYLRHEDETRDVRQQLGAAQILQSDLLPILTQHRQDKPLFDAVIRLMVNLTQPALLCFGSVPKDSSVRHHFLQVLTYLQAYKEAFASEKAFGVLSETLYELLQLGWEDRQEEDNLLIERILLLVRNILHVPANLEQEKSIDDDASIHDRLLWAIHLSGMDDLLLFLSSSSAEQQWSLHVLEIISLMFRDQTPEQLAGVGQGRLAQERSTDVAELEVLRQREMAEKRARALQRGNRHSRFGGSYIVQGLKSIGEKDVVFHKGLHNLQNYSSDLGKQPRRVPKRRQAAQELSVHRRSVLNVRLFLRDFCSEFLENCYNPLMGAVKDHLLRERAQQHDETYYMWAMAFFMAFNRAATFRPGLVSETLSIRTFHFVEQNLTNYYEMMLTDRKEAASWARRMHLALKAYQELLATVNEMDMCPDEAVRESSRIIKNNIFYMMEYRELFLALFRKFDERYHPRSFLRDLVETTHLFLKMLERFCRSRGNLMVQNKRKKRKKKKKVQDQGVAFSQSPGELEAMWPALAEQLLQCAQDPELSVDPVVPFDAASEVPVEEQRVEAMVRIQDCLTAGQAPQALALLRSAREVWPEGNAFGSPVISPGEEMQLLKQILSTPLPRQQEPEEGDAEEEEEEEEEEELQVVQVSEKEFNFLEYLKRFASSTIVRAYVLLLRSYRQNSAHTNHCIAKMLHRLAHGLGMEALLFQLSLFCLFNRLLSDPAAAAYKELVTFAKYIIGKFFALAAVNQKAFVELLFWKNTAVVREMTQGYGSLDSGSSSHRAPLWSPEEEAQLQELYLAHKDVEGQDVVETILAHLKVVPRTRKQVIHHLVRMGLADSVKEFQKRKGTQIVLWTEDQELELQRLFEEFRDSDDVLGQIMKNITAKRSRARVVDKLLALGLVSERRQLYKKRRKKLAPSCMQNGEKSPRDPWQEDPEEEDEHLPEDESEDEESEEGLPSGQGQGSSSLSAENLGESLRQEGLSAPLLWLQSSLIRAANDREEDGCSQAIPLVPLTEENEEAMENEQFQHLLRKLGIRPPSSGQETFWRIPAKLSSTQLRRVAASLSQQENEEEREEEPEPGVPGEQGPSEEHRTEALRALLSARKRKAGLGPTEEEATGEEEWNSAPKKRQLLDSDEEEDDEGRRQAVSGTPRVHRKKRFQIEDEDD
notes: the construct was made from the coding region of AF071506; Printed once as 'mTIM-VS', read as V5; also called mTIM-VS

Key:
CYC (Drosophila) = CYC (Drosophila) (UniProt O61734); assay: cell-based or functional assay
syrian hamster (sh)BMAL1 = syrian hamster (sh)BMAL1 (syrian hamster, UniProt O88529 1-626); assay: cell-based or functional assay
mTIM-V5 = molecular target: B1; assay: co-immunoprecipitation from co-transfected COS7 cells, anti-HA IP, anti-V5 blot
Method: (§1) Subsequently, the beads were washed four times (400 μl binding buffer for 10 min. per wash), mixed with 5 μl of 4×sodium dodecyl sulfate (SDS) gel loading buffer, boiled, and centrifuged. The supernatant was analyzed by SDS-polyacrylamide gel electrophoresis (PAGE) and western blotted as follows. Total protein (5 μg) from COS7 cells was extracted as described above, separated by SDS-PAGE, and transferred to a nitrocellulose membrane using a semi-dry blotting apparatus. Membranes were blocked with 5% non-fat milk. Blots were incubated with either the mouse anti-HA antibody (1:10,000) or the mouse anti-V5 antibody (1:5,000) overnight at 4EC. A goat anti-mouse horseradish peroxidase secondary antibody (1:10,000) was used in combination with enhanced chemiluminescence (NEN) to detect proteins.
(§2) Following detection of epitope-tagged proteins with one antibody, the blots were stripped in stripping buffer (62.5 mM Tris-HCl (pH 6.7), 100 mM 2-mercaptoethanol, 2% SDS) at 50EC for 30 minutes. The membrane was washed extensively (20 mM Tris, pH 7.6, 137 mM NaCl, 0.05% Tween-20) then blocked again and processed for detection of the second epitope-tagged protein.

mPER1-HA = molecular target: T1, mPER1-HA (mouse, UniProt O35973 1-1291); assay: as above
T1 construct: Expressed in COS7 cells; used in place of mPER3-HA in co-immunoprecipitation
Method: as §1, §2

Sequence of syrian hamster (sh)BMAL1 (O88529 whole entry): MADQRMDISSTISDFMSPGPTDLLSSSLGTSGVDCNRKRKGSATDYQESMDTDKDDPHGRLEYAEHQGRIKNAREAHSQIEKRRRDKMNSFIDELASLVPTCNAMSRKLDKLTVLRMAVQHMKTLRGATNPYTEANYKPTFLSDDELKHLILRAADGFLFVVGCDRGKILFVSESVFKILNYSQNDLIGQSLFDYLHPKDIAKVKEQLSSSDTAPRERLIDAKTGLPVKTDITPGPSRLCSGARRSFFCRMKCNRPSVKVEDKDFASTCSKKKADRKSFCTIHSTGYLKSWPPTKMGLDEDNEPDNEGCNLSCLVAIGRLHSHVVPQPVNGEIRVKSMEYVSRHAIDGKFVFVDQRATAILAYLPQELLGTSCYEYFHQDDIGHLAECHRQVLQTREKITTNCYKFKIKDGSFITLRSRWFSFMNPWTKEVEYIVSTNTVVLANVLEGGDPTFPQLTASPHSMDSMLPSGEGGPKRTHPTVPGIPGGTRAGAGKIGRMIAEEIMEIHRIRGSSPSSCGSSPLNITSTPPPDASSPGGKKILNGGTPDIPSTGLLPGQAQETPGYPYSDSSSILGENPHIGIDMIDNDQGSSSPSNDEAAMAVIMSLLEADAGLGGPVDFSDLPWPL
Sequence of CYC (Drosophila) (O61734 whole entry): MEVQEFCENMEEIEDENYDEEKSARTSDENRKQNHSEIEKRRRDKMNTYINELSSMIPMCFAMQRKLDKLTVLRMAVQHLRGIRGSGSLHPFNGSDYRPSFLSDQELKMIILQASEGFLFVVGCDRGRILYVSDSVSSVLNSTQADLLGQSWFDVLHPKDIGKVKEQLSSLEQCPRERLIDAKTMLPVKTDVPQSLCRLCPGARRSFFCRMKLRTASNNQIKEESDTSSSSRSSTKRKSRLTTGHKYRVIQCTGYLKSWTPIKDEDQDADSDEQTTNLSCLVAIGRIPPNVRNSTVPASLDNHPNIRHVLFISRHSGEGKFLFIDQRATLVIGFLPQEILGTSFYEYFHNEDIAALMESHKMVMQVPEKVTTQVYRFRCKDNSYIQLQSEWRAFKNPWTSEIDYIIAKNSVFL
T1 sequence (O35973 whole entry): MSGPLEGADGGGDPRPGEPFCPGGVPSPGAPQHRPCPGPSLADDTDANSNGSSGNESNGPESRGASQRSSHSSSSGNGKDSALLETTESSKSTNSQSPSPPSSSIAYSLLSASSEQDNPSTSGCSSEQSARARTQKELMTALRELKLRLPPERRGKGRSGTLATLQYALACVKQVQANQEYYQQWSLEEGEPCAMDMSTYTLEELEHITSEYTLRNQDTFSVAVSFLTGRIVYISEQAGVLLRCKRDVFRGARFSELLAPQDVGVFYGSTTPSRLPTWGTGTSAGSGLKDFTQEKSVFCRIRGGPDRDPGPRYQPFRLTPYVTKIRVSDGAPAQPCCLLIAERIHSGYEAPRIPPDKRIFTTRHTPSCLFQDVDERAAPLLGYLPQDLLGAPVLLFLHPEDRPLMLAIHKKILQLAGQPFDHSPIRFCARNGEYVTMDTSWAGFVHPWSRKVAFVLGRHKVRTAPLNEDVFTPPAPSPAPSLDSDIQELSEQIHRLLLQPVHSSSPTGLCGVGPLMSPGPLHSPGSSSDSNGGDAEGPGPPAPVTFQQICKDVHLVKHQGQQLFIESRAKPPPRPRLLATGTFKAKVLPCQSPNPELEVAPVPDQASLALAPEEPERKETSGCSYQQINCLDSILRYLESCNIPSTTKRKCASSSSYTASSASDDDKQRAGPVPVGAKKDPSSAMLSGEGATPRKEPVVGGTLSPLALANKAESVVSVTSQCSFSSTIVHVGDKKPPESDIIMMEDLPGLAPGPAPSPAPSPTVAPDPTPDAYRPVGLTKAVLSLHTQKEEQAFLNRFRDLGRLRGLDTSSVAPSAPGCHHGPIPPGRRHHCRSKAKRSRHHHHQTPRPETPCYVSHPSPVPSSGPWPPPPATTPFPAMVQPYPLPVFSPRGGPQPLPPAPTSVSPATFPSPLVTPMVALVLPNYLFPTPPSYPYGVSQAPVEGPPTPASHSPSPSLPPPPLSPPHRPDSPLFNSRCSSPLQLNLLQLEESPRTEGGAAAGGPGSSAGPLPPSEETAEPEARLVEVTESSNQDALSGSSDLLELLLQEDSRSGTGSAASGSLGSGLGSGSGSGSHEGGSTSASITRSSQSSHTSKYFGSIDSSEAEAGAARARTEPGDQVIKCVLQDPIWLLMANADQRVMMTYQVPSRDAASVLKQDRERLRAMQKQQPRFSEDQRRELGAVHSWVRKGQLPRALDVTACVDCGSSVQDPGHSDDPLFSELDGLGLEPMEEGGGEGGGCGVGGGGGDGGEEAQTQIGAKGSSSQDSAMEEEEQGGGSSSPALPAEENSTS

transcriptional activation (vasopressin promoter luciferase reporter, NIH3T3 cells) (syrian hamster (sh)BMAL1) [fold increase] | transcriptional activity (per E box luciferase reporter, S2 cells) (syrian hamster (sh)BMAL1) [fold] | Molecule | further results
– | – | dCLOCK (from UniProt O61735 1-1027) | transcriptional activity (per E box luciferase reporter, S2 cells) (CYC (Drosophila)): 265 fold
10 | 1740 | mCLOCK (other, mouse, UniProt O08785 1-855, looked up) MVFTVSCSKMSSIVDRDDSSIFDGLVEEDDKDKAKRVSRNKSEKKRRDQFNVLIKELGSMLPGNARKMDKSTVLQKSIDFLRKHKETTAQSDASEIRQDWKPTFLSNEEFTQLMLEALDGFFLAIMTDGSIIYVSESVTSLLEHLPSDLVDQSIFNFIPEGEHSEVYKILSTHLLESDSLTPEYLKSKNQLEFCCHMLRGTIDPKEPSTYEYVRFIGNFKSLTSVSTSTHNGFEGTIQRTHRPSYEDRVCFVATVRLATPQFIKEMCTVEEPNEEFTSRHSLEWKFLFLDHRAPPIIGYLPFEVLGTSGYDYYHVDDLENLAKCHEHLMQYGKGKSCYYRFLTKGQQWIWLQTHYYITYHQWNSRPEFIVCTHTVVSYAEVRAERRRELGIEESLPETAADKSQDSGSDNRINTVSLKEALERFDHSPTPSASSRSSRKSSHTAVSDPSSTPTKIPTDTSTPPRQHLPAHEKMTQRRSSFSSQSINSQSVGPSLTQPAMSQAANLPIPQGMSQFQFSAQLGAMQHLKDQLEQRTRMIEANIHRQQEELRKIQEQLQMVHGQGLQMFLQQSNPGLNFGSVQLSSGNSNIQQLTPVNMQGQVVPANQVQSGHISTGQHMIQQQTLQSTSTQQSQQSVMSGHSQQTSLPSQTPSTLTAPLYNTMVISQPAAGSMVQIPSSMPQNSTQSATVTTFTQDRQIRFSQGQQLVTKLVTAPVACGAVMVPSTMLMGQVVTAYPTFATQQQQAQTLSVTQQQQQQQQQPPQQQQQQQQSSQEQQLPSVQQPAQAQLGQPPQQFLQTSRLLHGNPSTQLILSAAFPLQQSTFPPSHHQQHQPQQQQQLPRHRTDSLTDPSKVQPQ | –
– | – | mPER3-HA (other, mouse, UniProt O70361 1-1113, looked up, not shown: small tags and cut ends, Expressed in COS7 cells from pcDNA 3.1; immunoprecipitated with anti-HA antibody) MDPCGDPAVPGGDCPQTRGPGLQGASGQEGPLQGTCVDSSHSEHEDRNRMSEELIMVVQEMKKYFPAERHTKPSTLDALNYALRCVHSVQANSDFFQSLGPRGAHQADVTVYSLEDLTALASEHTSKNTDTFAAVFSFLSGRLVHISEQAALILNSKRGFLKSVHFVDLLAPQDVRAFYAHTAPTQLPFWNNWTQRASQYECAPAKPFFCRICGGGDREKRHYSPFRILPYLVHVHSSAQPEPEPCCLTLVEKIHSGYEAPRIPVDKRIFTTTHTPGCVFLEVDERAVPLLGYLPQDLIGTSILTYLHPEDRPLMVAIHQKVLKYAGHPPFEHSPVRFCTQNGEYVILDSSWSSFVNPWSRKVSFIIGRHKVRTSPLNEDVFATRIKKAASNDKDIAELQEQIHKLLLQPVHASASSGYGSLGSSGSQEQHVSITSSSESSGHCPEEGQHEQMTLQQVYASVNKIKNVGQQLYIESMARSSVKPVAETCVEPQGGDEQKDFSSSQTLKNKSTTDTGSGGNLQQEQPSSSYQQMNCIDSVIRYLTSYSLPALKRKCISCTNTSSSSEEAKPIPEVDSSQRDTEQLLDIRKQETTGPSTDIEGGAARTLSTAALSVASGISQCSCSSTSGHAPPLQSESVAVACKPWALRTKASHLAAGGFKHVGLTAAVLSAHTQKEEQNYVDRFREKILTSPYGCYLQQESRNRAQYSCVQAGSTAKHSRCAGSERQKHKRKKLPAPVDTSSPGAHLCPHVTGLLPDEQHWGPSASPSPLGAGLAFPSALVVPSQTPYLLPSFPLQDMASQGVGVSAAWGAAAGCPPLSAGPQAVAAFPSAYVDTLMTIFLHNAPLFPLWPPSFSPYPSLGAAGSSELAPLVPAMAPNPEPTTSGHSQRRVEENWEAHSEELPFISSRSSSPLQLNLLQEEMPAPSESADAVRRGAGPDAKHHCVTGPSGSRSRHCTSGELATATAQQESAAASGSSASSIYFSSTDYASEVSENRQRPQDRQRDEALPGAAEESIWRMIERTPECVLMTYQVPERGREEVLKQDLEKLQSMEQQQPLFSPAQREELAKVRSWIHSHTAPQEGHLQSCVACEDRGSVGDTAEVLEQHPAEDTS | binding result (mTIM-V5): no binding
37 | 539 | human (h)MOP4 (other, UniProt Q99743 1-824, looked up) MDEDEKDRAKRASRNKSEKKRRDQFNVLIKELSSMLPGNTRKMDKTTVLEKVIGFLQKHNEVSAQTEICDIQQDWKPSFLSNEEFTQLMLEALDGFIIAVTTDGSIIYVSDSITPLLGHLPSDVMDQNLLNFLPEQEHSEVYKILSSHMLVTDSPSPEYLKSDSDLEFYCHLLRGSLNPKEFPTYEYIKFVGNFRSYNNVPSPSCNGFDNTLSRPCRVPLGKEVCFIATVRLATPQFLKEMCIVDEPLEEFTSRHSLEWKFLFLDHRAPPIIGYLPFEVLGTSGYDYYHIDDLELLARCHQHLMQFGKGKSCCYRFLTKGQQWIWLQTHYYITYHQWNSKPEFIVCTHSVVSYADVRVERRQELALEDPPSEALHSSALKDKGSSLEPRQHFNTLDVGASGLNTSHSPSASSRSSHKSSHTAMSEPTSTPTKLMAEASTPALPRSATLPQELPVPGLSQAATMPAPLPSPSSCDLTQQLLPQTVLQSTPAPMAQFSAQFSMFQTIKDQLEQRTRILQANIRWQQEELHKIQEQLCLVQDSNVQMFLQQPAVSLSFSSTQRPEAQQQLQQRSAAVTQPQLGAGPQLPGQISSAQVTSQHLLRESSVISTQGPKPMRSSQLMQSSGRSGSSLVSPFSSATAALPPSLNLTTPASTSQDASQCQPSPDFSHDRQLRLLLSQPIQPMMPGSCDARQPSEVSRTGRQVKYAQSQTVFQNPDAHPANSSSAPMPVLLMGQAVLHPSFPASQPSPLQPAQARQQPPQHYLQVQAPTSLHSEQQDSLLLSTYSQQPGTLGYPQPPPAQPQPLRPPRRVSSLSESSGLQQPPR | –
– | – | B1 | binding result (mPER1-HA): no binding
